Source: publication PMC11182016, “Molecular basis of human poly(A) polymerase recruitment by mPSF” (RNA, 2024)

Experiments:
Conditions in all cases: both partners purified
[1] = target: T1, CPSF160–WDR33 (CPSF160 coexpressed with TwinStrep3C-WDR33 residues 1–413-FLAG) (human, UniProt Q10570 1-1443; Q9C0J8 1-413); experiment: pull-down; FLAG pull-down on α-FLAG M2 Protein G Dynabeads; FLAG-tagged WDR33 (CPSF160–WDR33) 1.5 µM as bait, PAPOAC 15 µM; 20 mM HEPES-NaOH pH 7.5, 150 mM NaCl, 0.01% NP-40 substitute, no MgCl2, 4°C; Coomassie-stained SDS-PAGE
T1 construct: human CPSF160 (mPSF subunit); human WDR33 (mPSF subunit), residues 1-413; A 3C site follows the TwinStrep tag; no cleavage step is described; also called FLAG-tagged WDR33; source: Sf9, baculovirus coexpression, purified (StrepTactin XT, MonoQ, Superdex 200); not shown: FLAG, C-terminal, kept
T1 sequence (Q10570 whole entry, chain 1 of 2, the tested form may be a part): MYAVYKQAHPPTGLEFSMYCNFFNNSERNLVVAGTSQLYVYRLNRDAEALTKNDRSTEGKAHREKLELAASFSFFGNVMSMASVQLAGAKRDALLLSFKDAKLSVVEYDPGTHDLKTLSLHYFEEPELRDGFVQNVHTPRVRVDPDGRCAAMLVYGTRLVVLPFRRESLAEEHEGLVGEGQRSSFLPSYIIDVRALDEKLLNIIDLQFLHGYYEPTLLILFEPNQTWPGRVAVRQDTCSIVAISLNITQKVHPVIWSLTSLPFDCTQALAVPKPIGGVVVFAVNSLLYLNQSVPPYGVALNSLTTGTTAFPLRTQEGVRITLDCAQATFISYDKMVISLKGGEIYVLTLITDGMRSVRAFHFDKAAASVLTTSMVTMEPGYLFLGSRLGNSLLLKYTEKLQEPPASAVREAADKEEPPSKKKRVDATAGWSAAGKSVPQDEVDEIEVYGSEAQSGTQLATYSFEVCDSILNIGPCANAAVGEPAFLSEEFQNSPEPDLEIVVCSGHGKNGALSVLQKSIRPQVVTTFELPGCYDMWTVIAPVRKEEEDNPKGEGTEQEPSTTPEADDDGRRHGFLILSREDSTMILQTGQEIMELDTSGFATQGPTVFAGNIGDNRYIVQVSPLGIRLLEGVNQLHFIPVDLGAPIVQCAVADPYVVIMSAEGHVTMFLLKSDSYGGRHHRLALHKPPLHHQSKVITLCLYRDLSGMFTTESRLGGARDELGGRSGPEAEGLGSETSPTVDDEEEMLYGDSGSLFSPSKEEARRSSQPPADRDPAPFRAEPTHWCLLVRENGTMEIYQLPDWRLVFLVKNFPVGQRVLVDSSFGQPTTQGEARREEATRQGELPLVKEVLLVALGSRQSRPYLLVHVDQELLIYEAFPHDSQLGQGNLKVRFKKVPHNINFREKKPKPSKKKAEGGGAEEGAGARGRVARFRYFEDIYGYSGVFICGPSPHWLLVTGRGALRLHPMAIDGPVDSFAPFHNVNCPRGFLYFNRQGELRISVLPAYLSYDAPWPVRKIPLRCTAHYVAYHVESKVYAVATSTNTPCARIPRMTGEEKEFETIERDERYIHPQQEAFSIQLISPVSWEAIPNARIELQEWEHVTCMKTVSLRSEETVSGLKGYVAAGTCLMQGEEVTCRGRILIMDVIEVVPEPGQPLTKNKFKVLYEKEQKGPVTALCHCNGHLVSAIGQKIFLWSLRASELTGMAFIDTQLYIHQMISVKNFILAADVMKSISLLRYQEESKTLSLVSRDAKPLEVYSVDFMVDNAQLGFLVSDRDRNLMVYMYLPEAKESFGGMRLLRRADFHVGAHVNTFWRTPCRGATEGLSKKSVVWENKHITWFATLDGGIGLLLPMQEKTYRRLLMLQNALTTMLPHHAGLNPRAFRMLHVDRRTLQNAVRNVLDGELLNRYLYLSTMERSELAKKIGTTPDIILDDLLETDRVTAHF
T1 sequence (Q9C0J8 1-413, chain 2 of 2): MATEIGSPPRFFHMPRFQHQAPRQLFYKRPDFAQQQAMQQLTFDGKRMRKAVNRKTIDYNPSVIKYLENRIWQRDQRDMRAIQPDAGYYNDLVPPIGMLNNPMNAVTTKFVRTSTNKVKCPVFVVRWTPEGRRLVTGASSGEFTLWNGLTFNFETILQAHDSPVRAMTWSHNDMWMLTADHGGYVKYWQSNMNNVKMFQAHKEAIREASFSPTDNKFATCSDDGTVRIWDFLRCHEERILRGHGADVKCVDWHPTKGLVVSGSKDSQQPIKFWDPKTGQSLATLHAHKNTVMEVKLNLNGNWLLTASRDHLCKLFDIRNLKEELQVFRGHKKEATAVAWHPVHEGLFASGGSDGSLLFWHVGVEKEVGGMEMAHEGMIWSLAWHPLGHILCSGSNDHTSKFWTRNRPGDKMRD

[2] = target: T2, PAPOA structured core (His8-3C-PAPOA residues 1–513-FLAG), wild type (human, UniProt P51003 1-513); experiment: pull-down; FLAG pull-down on α-FLAG M2 Protein G Dynabeads; FLAG-tagged PAPOA core 2.5 µM as bait, PAPOAC 100 µM (40× excess); 20 mM HEPES-NaOH pH 7.5, 50 mM NaCl, 5 mM MgCl2, 0.01% NP-40 substitute, 4°C; Coomassie-stained SDS-PAGE
T2 construct: A 3C site lies between His8 and PAPOA; no cleavage step is described in the purification; also called PAPOA core; PAPOA_(1–513); source: E. coli BL21 STAR (DE3) pRARE, purified (Talon, HiTrap Heparin, Superdex 200); not shown: FLAG, C-terminal, kept
T2 sequence (P51003 1-513): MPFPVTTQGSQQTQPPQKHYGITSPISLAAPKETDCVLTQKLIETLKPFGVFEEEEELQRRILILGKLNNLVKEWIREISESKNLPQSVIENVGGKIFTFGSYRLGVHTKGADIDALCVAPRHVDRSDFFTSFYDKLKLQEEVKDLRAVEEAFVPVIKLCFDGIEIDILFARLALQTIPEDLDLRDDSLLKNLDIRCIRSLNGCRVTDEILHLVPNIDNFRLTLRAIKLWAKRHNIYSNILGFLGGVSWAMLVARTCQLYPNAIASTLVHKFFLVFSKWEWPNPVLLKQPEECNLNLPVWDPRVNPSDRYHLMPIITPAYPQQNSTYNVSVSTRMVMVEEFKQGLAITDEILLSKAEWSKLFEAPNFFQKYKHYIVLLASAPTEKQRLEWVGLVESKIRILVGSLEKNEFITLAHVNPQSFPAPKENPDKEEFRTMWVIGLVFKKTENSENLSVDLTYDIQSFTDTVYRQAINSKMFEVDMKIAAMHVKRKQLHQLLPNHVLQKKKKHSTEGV

[3] = target: T2, PAPOA structured core (His8-3C-PAPOA …); experiment: pull-down; FLAG pull-down on α-FLAG M2 Protein G Dynabeads; FLAG-tagged PAPOA core 2.5 µM as bait, FIP1 25 µM (10× excess); 20 mM HEPES-NaOH pH 7.5, 150 mM NaCl, 5 mM MgCl2, 0.01% NP-40 substitute, 4°C; Coomassie-stained SDS-PAGE

| binding result [1] | binding result [2] | binding result [3] | Binder |
| --- | --- | --- | --- |
| binds | binds | – | DLSDIPALPANPIPVIKNSIKLRLNR (human poly(A) polymerase alpha (PAPOA), C-terminal motif, residues 720-745; A 3C site follows MBP; no cleavage step is described in the purification; also called PAPOA C terminus; PAPOAC peptide; source: E. coli BL21 STAR (DE3) pRARE, purified (Amylose resin, Superdex 200)) [minimal PAPOAC construct (His6-MBP-3C-PAPOA residues 720–745), wild type] |
| – | – | binds | ETEDDSDSDSDDDEDDVHVTIGDIKTGAPQYGSY (peptide, UniProt Q6UN15 80-113, looked up, A 3C site follows MBP; no cleavage step is described in the purification; also called minimal FIP1 peptide; source: E. coli BL21 STAR (DE3) pRARE, purified (Amylose resin, Superdex 200)) [minimal FIP1 construct (His6-MBP-3C-FIP1 residues 80–113), wild type] |
